Common to all, as to details: remark: other sources report otherwise
Assay [1] has as its target T1, factor XIIa, P00748.
T1 chain: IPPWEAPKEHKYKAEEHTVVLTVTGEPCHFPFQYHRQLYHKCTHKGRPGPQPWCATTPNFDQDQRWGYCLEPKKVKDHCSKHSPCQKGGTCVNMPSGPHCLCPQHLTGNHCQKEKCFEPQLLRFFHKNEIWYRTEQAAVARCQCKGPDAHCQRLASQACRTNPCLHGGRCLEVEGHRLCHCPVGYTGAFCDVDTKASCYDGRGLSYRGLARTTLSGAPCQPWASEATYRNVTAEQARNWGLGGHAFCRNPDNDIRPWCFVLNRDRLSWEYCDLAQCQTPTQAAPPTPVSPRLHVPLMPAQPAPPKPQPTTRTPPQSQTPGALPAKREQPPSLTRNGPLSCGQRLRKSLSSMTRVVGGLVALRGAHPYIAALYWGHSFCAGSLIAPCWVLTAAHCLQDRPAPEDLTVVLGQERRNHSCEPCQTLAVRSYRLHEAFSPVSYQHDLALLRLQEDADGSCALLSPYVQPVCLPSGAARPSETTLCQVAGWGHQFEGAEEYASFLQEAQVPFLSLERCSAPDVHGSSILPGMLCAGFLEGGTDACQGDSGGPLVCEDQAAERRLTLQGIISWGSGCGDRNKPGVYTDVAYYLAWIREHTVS
Briefly: SPR, Ir-CPI immobilised; two-state model, forward rate of the conformation change. On the technique in general: Surface plasmon resonance follows binding to a sensor surface in real time, without labels.

Assay [2] addresses T1, factor XIIa, P00748. Nature of the assay: SPR (BIAcore X), Ir-CPI immobilised at about 200 RU, factor injected at 5-300 nM; two-state model, kd1 (first step).
Assay [3] has as its target T1, factor XIIa, P00748. Nature of the assay: SPR (BIAcore X), Ir-CPI immobilised at about 200 RU, factor injected at 5-300 nM; two-state model, ka1 (first step).
In assay [4] the target is T1, factor XIIa, P00748. Nature of the assay: SPR, Ir-CPI immobilised; two-state model, global equilibrium constant K = ka1ka2/kd1kd2.
In assay [5] the target is T1, factor XIIa, P00748. Nature of the assay: SPR, Ir-CPI immobilised; two-state model, backward rate of the conformation change.

As a reminder, the koff is the rate constant with which the complex falls apart. Higher therefore signals fast dissociation. A word on the kon: it is the rate constant with which the complex forms. A lower kon goes with slow association.

B1: Ir-CPI, Q9GP15 20-86 (protein)
chain: ANHKGRGRPAKCKLPPDDGPCRARIPSYYFDRKTKTCKEFMYGGCEGNENNFENITTCQEECRAKKV
B1 gave a ka2 with factor XIIa, P00748 [1] of 0.655 s⁻¹. For the same molecule, the koff with factor XIIa, P00748 [2] came to 0.0946 s⁻¹. The same molecule returned a kon with factor XIIa, P00748 [3] of 219000 M⁻¹ s⁻¹. This molecule showed a Ka in the assay with factor XIIa, P00748 [4] of 1.68e+08 M⁻¹. In the assay with factor XIIa, P00748 [5], this molecule came in with a kd2 of 0.105 s⁻¹.

Source of the values: patent EP2123670B1.
